Measured values published in US20130287795A1 (FUNDACION CENTRO NACIONAL DE INVESTIGACIONES ONCOLOGICAS, published 2013).

B1: scFv B11 (human anti-ephrin B2 single chain variable fragment) (scFv)
scFv: QVQLVQSGAEVKKPGASVRLSCEASGYTFTDYYIHWVRQAPGQGLEWMGWMNPSSGNTGYAQKFQGRVTMTRNTSISTAYMELSSLRSEDTAVYYCARDITGTATGFDYWGQGTLVTVSSGGGGSGGGGSGGGGSEIVLTQSPLSLPVTLGQPASISCRSSQSLLHSNGYNYLDWYLQKPGQSPQLLIYLGSNRASGVPDRFSGSGSGTDFTLKISRVEAEDVGVYYCMQGLLSPVTFGQGTRLDIKRTVAAPTAAAEQKLISEEDLNGAALEHHHHHH
notes: Expressed from pET28b in the E. coli periplasm with c-myc and a histidine tail; also called clone B11; B11 antibody
B2: scFv 2B1 (human anti-ephrin B2 single chain variable fragment) (scFv)
scFv: QVQLVQSGGGLVQPGRSLRLSCAASGFTFDDYAMHWVRQAPGKGLEWVSGISWNSGSIGYADSVKGRFTISRDNAKNSLYLQMNSLRAEDTALYYCARGHRTSDAFDIWGQGTMVTVSSGGGGSGGGGSGGGGSQPVLTQPPSVSLAPGKTARITCGGDSIGLKSVHWYQQKPGQAPVLVMSSDSDRPSGIPDRFSGSNSGNTATLTITRVEAGDEADYYCQVWDSSSDHMVFGGGTKLTVLGQPKAAPSAAALEDYKDDDDKHHHHHH
notes: Expressed from pET28b in the E. coli periplasm with a histidine tail; also called clone 2B1; 2B1 antibody

Assays:
[1] = target: T1, ephrin B2-Fc (extracellular region of ephrin B2 fused to the Fc domain of human IgG, expressed in mammalian … (human)); experiment: SPR (Biacore X), ephrin B2-Fc immobilised on CM5 chip, scFv at 0.4, 0.2, 0.1, 0.05 uM, Langmuir 1:1 model
T1 construct: extracellular domain; Antigen used for panning, ELISA and Biacore; also called extracellular region of the ephrin B2
Method: (§1) The two selected scFv, B11 and 2B1, were characterized using various techniques. First we determined the antibodies affinity constants to the ephrin B2 by means of surface plasmon resonance technique on a Biacore X, with the extracellular region of the immobilized ephrin B2 and different dilutions of purified scFv. […] Then, it was analyzed, using the same technique, the capacity of the antibodies to compete for the binding of ephrin B2 to its natural receptor Eph B4. To this end, Eph B4-Fc was immobilized on a chip and the binding to ephrin B2 was measured in the presence of different concentrations of B11 or 2B1. […] However, the 2B1 antibody has no blocking effect (FIG. 5).
(§2) To study the affinity constants of the scFv was used the technique of surface plasmon resonance with the BIAcore X equipment (BIAcore). The ephrin B2-Fc was covalently bound to CM5 chip surface (GE Healthcare) upon activation of the carboxyl groups of the dextran matrix of the chip with 0.4 M EDC (1-ethyl-3-(-dimethylaminopropyl)-carbodiimide) and 0.1 M NHS(N-hydroxysuccinimide) in a 1:1 ratio for 7 minutes at a flow rate of 10 μl/minute. The ephrin B2-Fc protein was diluted to 10 μg/ml in 10 mM sodium acetate at pH 4 and 30 μl of this solution was passed over the chip surface at a flow rate of 10 μl/min in HBS-EP buffer (10 mM HEPES pH 7.4, 150 mM NaCl, 3 mM EDTA, 0.005% surfactant P20) (GE Healthcare). […]

[2] = target: T1, ephrin B2-Fc (extracellular region of …); experiment: SPR competition: serial dilutions of scFv mixed with 0.2 uM ephrin B2-Fc, injected over immobilised Eph B4
Method: A. Graph showing the percent of binding of ephrin B2 to Eph B4. Binding inhibition tests of ephrin B2 to Eph B4 in the presence of scFv anti-ephrin B2 by surface plasmon resonance. Serial dilutions of scFv B11 (•) or 2B1 (∘) were mixed with ephrin B2 and injected over Eph B4 immobilized on a chip. The relative amount of ephrin B2 bound to Eph B4 was measured immediately after injection of each sample and plotted as a function of the concentration of scFv. […] B. The scFv B11 is capable of blocking the interaction between ephrin B2 and Eph B4 receptor in a cellular assay. Analysis of tyrosines phosphorylation of the Eph B4 receptor in HUVEC cells in response to stimulation with ephrin B2 overexpressed on the surface of HEK293 cells. HUVEC and HEK293 cells overexpressing ephrin B2 were cocultured for 20 minutes in the presence or absence of anti-ephrin B2 scFv. After Eph B4 receptor immunoprecipitation, it was analyzed the total amount of this protein (lower panel) and its level of phosphorylation (upper panel) by immunoblot.
The ability of scFv to inhibit the binding of ephrin B2 to its EphB4 receptor was analyzed by surface plasmon resonance competitive binding assay. Soluble Eph B4 (R&D) was conjugated to a CM5 chip (GE Healthcare) using the same protocol described above. […]

[3] = target: T2, recombinant mouse ephrin B1-Fc (R & D) (mouse, UniProt P52795 30-229); experiment: immunoblot; periplasmic fraction of the scFv, detected with anti c-Myc and anti-mouse peroxidase conjugate
T2 construct: Bought protein (R & D); also called EB1; not shown: Fc part of the bought fusion protein is not described
T2 sequence (looked up): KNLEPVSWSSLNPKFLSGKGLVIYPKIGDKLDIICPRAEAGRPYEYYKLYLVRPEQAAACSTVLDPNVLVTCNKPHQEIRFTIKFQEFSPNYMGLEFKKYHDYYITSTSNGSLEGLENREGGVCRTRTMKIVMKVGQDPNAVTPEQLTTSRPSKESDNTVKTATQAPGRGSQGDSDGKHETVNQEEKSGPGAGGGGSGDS
Method: (§3) Recombinant mouse proteins ephrin B1-Fc, mouse ephrin B2-Fc and human ephrin B3-Fc (R & D) were separated electrophoretically in polyacrylamide-SDS 10% gels and transferred onto nitrocellulose membrane (GE Healthcare). After blocking the membrane with PBS-3% skimmed milk powder for 1 hour, it was incubated with 1:5 diluted periplasmic fraction in PBS-3% powdered milk for 16 hours at 4° C. The secondary antibodies used were anti c-Myc (Sigma) at a 1:1000 dilution for 2 hours at room temperature and anti-mouse peroxidase conjugate (Sigma) diluted 1:5000 for 1 hour at room temperature. Visualization was performed by incubation with ECL reagent (ECL, “Enhanced Chemiluminescence”) (GE Healthcare).

[4] = target: T3, recombinant human ephrin B3-Fc (R & D) (human, UniProt Q15768 28-224); experiment: as above
T3 construct: Bought protein (R & D); also called EB3; not shown: Fc part of the bought fusion protein is not described
T3 sequence (looked up): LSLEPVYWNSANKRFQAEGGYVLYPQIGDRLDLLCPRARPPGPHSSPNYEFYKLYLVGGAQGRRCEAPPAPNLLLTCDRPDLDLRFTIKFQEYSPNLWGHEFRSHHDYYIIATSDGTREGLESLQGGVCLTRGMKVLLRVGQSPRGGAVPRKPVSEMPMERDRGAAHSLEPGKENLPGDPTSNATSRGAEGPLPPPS
Method: as §3

[5] = target: T1, ephrin B2-Fc (extracellular region of …); experiment: SPR (Biacore X), ephrin B2-Fc immobilised on CM5 chip, scFv at 30, 20, 10 and 7.5 uM, Langmuir 1:1 model
Method: as §1, §2

T1 sequence (P52799 whole entry, the tested form may be a part): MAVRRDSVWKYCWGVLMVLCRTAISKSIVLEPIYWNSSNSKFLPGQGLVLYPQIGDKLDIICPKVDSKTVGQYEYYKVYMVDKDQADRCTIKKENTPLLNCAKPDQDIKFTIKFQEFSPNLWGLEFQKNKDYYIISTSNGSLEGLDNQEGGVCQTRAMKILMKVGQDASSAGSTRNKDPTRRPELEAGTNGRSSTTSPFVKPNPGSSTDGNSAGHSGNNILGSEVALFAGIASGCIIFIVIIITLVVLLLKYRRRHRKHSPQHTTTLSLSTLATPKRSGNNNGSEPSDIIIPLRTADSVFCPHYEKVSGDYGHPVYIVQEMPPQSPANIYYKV

| Binder | Kd [1] [µM] | IC50 [2] [µM] | binding result [3] | binding result [4] | Kd [5] [µM] |
| --- | --- | --- | --- | --- | --- |
| B1 | 0.11 | 0.3 | no binding | no binding |  |
| B2 |  |  | no binding | no binding | 0.63 |
